According to the nanobody polyreactivity screen of Harvey et al. (2022):

Assay: yeast display, Sf9 membrane polyspecificity reagent, FACS + sequencing; frameworks hold sequencing errors
Summary of the method: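 Polyreactivity labels are assigned by the sorting gate from which each nanobody was recovered. The gates were low and high (top ~1%), set on anti-HA fluorescence for expression and streptavidin fluorescence for reagent binding. Before sorting, galactose-induced (36–48 hours) yeast display cells were stained for 1 hour at 4 °C with 10% biotinylated, detergent-solubilized Sf9 membrane reagent.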

Sequence	polyreactivity (PSR sort gate)
QVQLVESGGGLVQAGGSLSLSCAASGSTSVLNAMGWYRHAPGKERELVAALTSGVDSTYYADSVKGRFTISRDNAKNTVYLQMNSVKREDTAVYYCATVVDALDNSYKRVYLFDYWGQGTQVTVSS	low polyreactivity
QVQLAESGGCLVQAGGTLRLSCAASGSTSAKNVMGWYRQPPGKERELVAAISRSGGRTYYADSVKGRFTISRDNAKNTVFLQMNSLKPEVSAVYYCANDYGGYYSRYDYWGQGTQVTVSS	high polyreactivity
QVQLVESGGGLVQAGGSLRLSCAASGRTFGYYAMGWYRQAPGKERELVAAISSGGGTYYADSVKGRFTISRDNAKNTVYLLMNSLKPEDTAVYYCAATGWVYWGQFDYWGQGTQVTVSS	low polyreactivity
QVQLVESGGGLVQAGGSLRLSCAASGYTYRWYAMGWYRQAPGKEREMVAAINRNGGSTFYADSVKGRFTISRDNAKNSVYLQMNSLKPEDTAVYFCAARYSSLPRYLTDGLDYWGQGTQVTVSS	high polyreactivity
QVQLVESGGGLVHAGGSLRLSCAASGSTFRSYAMGWYRQAPGKERELVARISYRTGSTYYADSVKGRFTISRDYAKNTVYLQMNSLKPEDTAVYYCATRGSYVGGLYDYWGQGTQVTVSS	high polyreactivity
QVQLVESGGGLVQAGGSLRLSCAASGYTFLYYAMGWYRQAPGKEREFVAAISRSGGSTYYADSVKGRFTISRDNAKNTVYLQMNSLKPEDTAVYFCAARFRYQHQRGDYWGQGTQVTVSS	high polyreactivity
KVQLVESGGGLVQAGGSLRLSCAASGSIFWFYAMGWYRQAPGKEREFVATISRSCGSTYYADSVKGRFTISRDNAKNTDYLQMNSLKPEDTAVYYCIARGPRSHRYDYWGQGTQVNVSS	high polyreactivity
QVQLVESGAGLVQAGGGLRLSCAASGFIFNLYAMGWYREAPGKERELVAAISSGGNTHYADSVKGRFTISRDNAKNTVYLQMNSLKPVDTAVYYCNADVNHVNKAWHVSFHQGYYWGQGTQVTVSS	low polyreactivity
QVQLVESGGGLVQAGGSLRLSCAASGITVFENAMGWYRQAPGKERELVAAISYSGGSTYYADSVKGRFTISRDNAKNTVYLQMNSLKPEDTAVYYCAADWYYFLYIRNRWGYGYWGQGTQVTVSS	high polyreactivity
QVQLEESGGGLVQAGGSLRLSCAASGFIFFAYAMGWYRQAPGKERELVAAISRTGGSTYYADSVKGRFTISRDNAKNTVYLLMNSLKPEDTAVYYCAAVVSRTYQWWTYDYWGQGTQVTVSS	high polyreactivity
QVQLVESGGGLVQAGGSLRLSCAASGSIFKYNTMGWYRQAPGKERELVAAISSGGRTYYADSVKGRFTISRDNAKNSVYLQMNSLKPEDTAVYYCAARWSFFKTTHRNNYWGQGTQVTVSS	high polyreactivity
QVQLVESGGGLVQAGGSLRLSCAASGITIKRYAMVWYSQAHGKEREFVATISQSGTSTYYADSVKGRFTISRDNAKNTVYLQMNSLKPEDTAVYYCAADYIGYWYGYYSWGQGTKVTVSS	low polyreactivity
QVQLVESGGGLVQAGGSLRLSCAASGLIFRRYAMGWYRQAPGKERELVAAISRTGGTTYYADSVKGRFTISRDTAKNTVYLQMNSLKPEDTAVYYCAAAGQGPDYDYWGQGTQVSVSS	high polyreactivity
QVQLVESGGGLGQAVGRLRLSCAASGGTFPQYAMGWYRQAPGKEREFVADITSRGGTTYYADSVQGRFTISRDNAKNTVYLQMNSLKPEDTAVYYCAADNPADWWGLDYWGQGTQVTVSS	low polyreactivity
QVQLVESGGGLVQAGGSLRLSCAASGSILGLYAMGWYRQAPGKERELVASITSSGSTYYADSVKGRFTISRDNAKNTVYLQMNSLKPEDTAVYYCAARYYYGRRYDYWGQGTQVTVSS	low polyreactivity
QVQLVESGGGLVQAGGSLRLSCAASGSIFSYYAMGWYRQAPGKERELFAVINSGGRTNYADSVKGRFTISRDNAKNTVYLQMNSLKPEDTAVYYCAAQGYFVDRAGRYYRGDYWGQGTQVTVSS	high polyreactivity
QVQLVESGGGLVQAGGSLRLSCAASGSIFNRYAMGLYRQAPVKERELVAAISSTGSTYYADSVKGRFTISRDNAKNTVYLQMNSLKPEDTAVYYCATDDPLSQINEQGMDYWGQGTQVTVSS	low polyreactivity
QVQLVESGGGLVQAGGSLRLSCAASGSIFKYNAMGWYRQAPGKEREFVAAISSSSGNTYYADSVKGRFTISRDNAKNSVYIQMNSLKPEDTAVYYCAARTFAYRRGWFGYWGQGTQVTVSS	high polyreactivity
QVQLVESGGGLVQAGGSLRLSCPASGRIFDYYAMGRYRQAPGKERELVARITSGGTTNYADSVKGRFTISRDNAKNTVFLQMNSLKPEDTAVYYCNAQDYCDPLQMDYWGQGTQVTVSS	low polyreactivity
QVQLVESGGGLVQAGGSLRLSCAASGLTFNPNAMGWYRQAPGKERDLVADITYRGGSTYYADSEKGRFTISRDNAKNTDYLQMYSLKPEDTAVYYCAAQYIGWHLYWYDYWGQGTQVTVSS	low polyreactivity
QVQLVESGGGLVQAGGSLRLSCAASGIIFPFYAMGWYRQAPGKERELVAAITSDGNTNYADSVKGRFTISRDNAKNTVYLQMNSLKPEDTAVYYCNAETQYGVLSWHSTRHDYWGQGTQVTVSS	low polyreactivity
HVQLVESGGALVQAGGSLRLSCAASGYIFYYYAMGWYRQAPGKERELVAAITFSGGSTYYADSVKGRFTISRDIAKNTVYLQMNSLKPEDTAGYYCDKVELRDAAELGSDEYDYWGQGTKVTVSS	low polyreactivity

Sequence	polyreactivity (PSR sort gate)
QVQLVESGGGLVQAGCSLRLSCAASGRIYRRYAMGWYRQAPGKERELVAAISSRGGRTYYADSVKGRITISRDNAMNTVYLQMNSLKQEDTAVYYCAARPAGYGHYKYYYWGQGTQVTVSS	high polyreactivity
QVQLVESGGGLVQAGGSLRLSCAASGSTFGTYAQGCYRQAPVKDRELVAAITYSTGNTYDADSVKGRFTISRDNAKNTVYLQMNSLKPEDTAVYYCALEYVYDYFWMDYWGQGTQVTVSS	high polyreactivity
QVQLVESGGGLDQAGGSLRLSCAASGLTFQWNAMGWYRQAPGKERELVAGITDIGDSTYYADSVKGRFTISRDNAKHTDYLQLNSLKPEDTAVYYCNATSGYKHAWRSENGYWGQGTQVTVSS	low polyreactivity
QVQLVESVGGLVQAGGSLRLSCPTSGRIFTYYAMGWYRQAPGKERELVAAINSRGGSTYYADSVKGRFTISRDNAKNTVYLQMNSLKPEDSAVYYCAAVGLYSRYAYWGQGTQVSVSS	high polyreactivity
QVQLVESGGGLVQAGGSLRLSCAASGSTFQWYAMGWYRQAPGKERELVAAISNGVSTNYADSVKGRFTISRDNAKNTVYLHMNSLKPEDTAVYYCAADAYPYYQSYYPFEYLGQGTQVTVSS	low polyreactivity
QVQLVESGGGLVQAGGSLRLSCAASGRTFYYNTMGWYRQAPGKERELVASITSGSSTYYADSVKGRFTISRDNAKNTVYLQMNSLKPEDTEVYYCAVYRRYSVKYHYGYWGQGTQVTVSS	high polyreactivity
QVQLEESGGGLVQAGGSLRLSCADSGSTFYTNAMGWYRQAPGKERELVAAISASVGSTYYADSVKGRFTISRDNAKNTVYLQMNILKPEDTAVYYCAAYVWDSRRYDYWGQGTQVTVSS	low polyreactivity
QVQLVESGGGLVQAGGSLRLSCAASGFTFGSYAMGWYRQAPGKERELVARISSDGSTNYAVSVNGRFTISRDNAKNTVYLQMNSLKPEDTAVYYCAADPVHRFPGTGGYWGQGTQVTVSS	low polyreactivity
QVQLVESGGGLVQAGGSLRLSCAASGRIYPYYDMGWYRQAPGKERELVAAITSGTGTYYADSGKGRVTLSRDNAKTTVYFQMYSLKPEDTAVYYCNARRYLRGYWGQGTQVTLSS	low polyreactivity
QVQLVESGGGLVQAGGSLRLSCAASGSTFATDAMGWYRQAPGTERELVAVISRSGGSTYYADSVKGRFTISRDNAKNTVYLQMNSLKPEDTAVYYCAARLVNKSRWGTLRYDYWGQGTQVTVSS	high polyreactivity
QVQLVESVGGLVQAGRSLRLSCAASGSIFLRNAMGWYRQPPGKERELVASITWNGASTSYADSVKGRFTISRDNAKNTVYLQMNSLKPEDTAVYYCAAVTVQDSNLKYGYWGQGTQVTVSS	low polyreactivity
QVQLVESGGGIVQAGGSLRLSCAASGRTFLQNAMGWYRQAPGKERELVATINYSGSSTYYADSVKGRFTISRDNAKKTVYLQMNSLKPEDTAVYYCNRDVPYRLVYYANYYRGQGTQVTVSS	low polyreactivity
QVQLVESGGGLVQAGGSLRLSCAASGSIFYTYVMGWYRQAPRKERELVAAITRAGNTYYADSVKGRFTISRDNAKKTVYLQMNILKPEDTAVYYCAAGRYKPFTYHFDYWGQGTQVTVSS	high polyreactivity
QVQLVDSGGGLVQAGGSLRLSCAASGRIFYVYAMGWYRQATGKERQLVASIRYSGATTYYADSVKGRFTISLDNAKNTVYLQMNSLKPEDTAVYYCAADTLGTPAYRYEYWGQGTQVTVSS	low polyreactivity
QVQLVESGGGLVQAGGSLRLSCAASGSTSVYYAMGWYRQTPGKERELVAAINWNGGRTYYADSVKGRFTISRDNAKNTVYLQMNSLKPEDTAVYYCATDSGDGEGDYWGQGTQVTVSS	low polyreactivity
QVQLVESGGGLVQAGGSLRLSCAASGRIFKTYAMGWYRPAPGTERELVAGISWRGGSTYYADSVKGRFTISRDNAKNTVYLQMNSLKPEDTAVYYCAADDTYTRYDYWGQGTQVTVSS	high polyreactivity
QVQLVESGGGLVQAGGSLRLSCAASGRTFDVYTMGWYRHAAGKERELVAAITARGARTYYADSVKGRFTISRDNAKNTVYLQMNSLKPEDTAVYYCAAKSYRHSLYDYWGQGTQVTVSS	high polyreactivity
QVQLVESGGGLVQAGGSLRLSCAASGRIFKSDGMGWYREAPGKERELVATISSSGDSTYYADSVKGRFTISRDNAKNTVYLQMNSLKPDDTAVYHCAKRARYKFGYWGQGTQVTVSS	high polyreactivity
QVQLVESGGGLVQAGGSLRLSCAASGRTFGKYAMGWYRQAPGKERELVATITRTARTNYADSVKGRFTNSRDNAKNTVYFQMNSLKPEDTAVYYCAKGWPAIYGTYDYWGQGTQVTVSS	high polyreactivity
QVQLVESGGGLVQAGGSLRLSCAASGSTINHYAMGWYRQAPGKERELVAAISWSGGSTRYADSVKGRFTISRDNAKNTVYLQMNSLKPEDTAVYYCAARGYGKYYYWGQGTQVTVSS	high polyreactivity
QVQLVESGGGLVQAGGSLRLSCAASGRILRYYAMGWYRQAPGKERELVASITSGGSTYYADSVKGRFTISRDNAKNTVSLQMNSLKPEDTAVYYCAARNSYRVDLSYYAYDYWGQGTQVTVSS	high polyreactivity
